The results in this text go back to paper doi:10.1101/2025.10.01.679551, “Mechanism of phosphoinositide regulation of lysosomal pH via inhibition of CLC-7” (bioRxiv, 2025).

B1: human ClC-7 (wild type), C-terminal 6His-tag (natural protein)
chain: MANVSKKVSWSGRDRDDEEAAPLLRRTARPGGGTPLLNGAGPGAARQSPRSALFRVGHMSSVELDDELLDPDMDPPHPFPKEIPHNEKLLSLKYESLDYDNSENQLFLEEERRINHTAFRTVEIKRWVICALIGILTGLVACFIDIVVENLAGLKYRVIKGNIDKFTEKGGLSFSLLLWATLNAAFVLVGSVIVAFIEPVAAGSGIPQIKCFLNGVKIPHVVRLKTLVIKVSGVILSVVGGLAVGKEGPMIHSGSVIAAGISQGRSTSLKRDFKIFEYFRRDTEKRDFVSAGAAAGVSAAFGAPVGGVLFSLEEGASFWNQFLTWRIFFASMISTFTLNFVLSIYHGNMWDLSSPGLINFGRFDSEKMAYTIHEIPVFIAMGVVGGVLGAVFNALNYWLTMFRIRYIHRPCLQVIEAVLVAAVTATVAFVLIYSSRDCQPLQGGSMSYPLQLFCADGEYNSMAAAFFNTPEKSVVSLFHDPPGSYNPLTLGLFTLVYFFLACWTYGLTVSAGVFIPSLLIGAAWGRLFGISLSYLTGAAIWADPGKYALMGAAAQLGGIVRMTLSLTVIMMEATSNVTYGFPIMLVLMTAKIVGDVFIEGLYDMHIQLQSVPFLHWEAPVTSHSLTAREVMSTPVTCLRRREKVGVIVDVLSDTASNHNGFPVVEHADDTQPARLQGLILRSQLIVLLKHKVFVERSNLGLVQRRLRLKDFRDAYPRFPPIQSIHVSQDERECTMDLSEFMNPSPYTVPQEASLPRVFKLFRALGLRHLVVVDNRNQVVGLVTRKDLARYRLGKRGLEELSLAQT
notes: ClC-7 Cl-/H+ antiporter, Homo sapiens, synthesised gene in pLexM; Homodimer; each subunit carries one Ostm1; The cytoplasmic domain is not resolved in the structure without lipid (9G6D); also called wtCLC7; WT-CLC7; source: HEK293F (Freestyle 293F), co-transfected with OSTM1-Flag
B2: human Ostm1, C-terminal Flag-tag (natural protein)
chain: ALPFGSSPHRVFHDLLSEQQLLEVEDLSLSLLQGGGLGPLSLPPDLPDLDPECRELLLDFANSSAELTGCLVRSARPVRLCQTCYPLFQQVVSKMDNISRAAGNTSESQSCARSLLMADRMQIVVILSEFFNTTWQEANCANCLTNNSEELSNSTVYFLNLFNHTLTCFEHNLQGNAHSLLQTKNYSEVCKNCREAYKTLSSLYSEMQKMNELENKAEPGTHLCIDVEDAMNITRKLWSRTFNCSVPCSDTVPVIAVSVFILFLPVVFYLSSFLHSEQKKRKLILPKRLKSSTSFANIQENSN
notes: Ostm1, Homo sapiens, synthesised gene in pLexM; Two copies in the ClC-7/Ostm1 complex, one for each ClC-7 subunit; also called OSTM1-Flag; source: HEK293F (Freestyle 293F), co-transfected with CLC7-His or CLC7Y715C-His; not shown: Flag, C-terminal, kept
B3: human ClC-7 Y715C, C-terminal 6His-tag (natural protein)
chain: B1 chain with Y715C
notes: ClC-7 Cl-/H+ antiporter, Homo sapiens, synthesised gene in pLexM with the patient gain-of-function mutation Y715C; Y715C is a mutation found in human patients; The cytoplasmic domain is not resolved in 9G6E; also called CLC7Y715C-His; source: HEK293F (Freestyle 293F), co-transfected with OSTM1-Flag

Data set [1] concerns the molecule itself. Kind of data set: cryo-EM structure; ClC-7/Ostm1 complex co-expressed in HEK293F, purified by FLAG affinity and SEC in LMNG/CHS with lipid bought as PI(3,5)P2 added during purification; supplemented with 0.1 % LMNG and 2.5 mM ATP; C2 symmetry.
In data set [2] the target is B3. Kind of data set: cryo-EM structure; ClC-7/Ostm1 complex co-expressed in HEK293F, purified by FLAG affinity and SEC in LMNG/CHS, no lipid added (apo); C2 symmetry. The conditions noted are these: both partners purified.
Data set [3] deals with B1. The description is as above. The conditions noted are these: both partners purified.
Data set [4] concerns the molecule itself. Described as above.

Substitutions are numbered along the chain they refer to. Numbers in names are those of the source.

As for B1, the binding result in data set [1] was “binds”.

B2: the binding result in data set [2] and in data set [3] was “binds” in each case.

For B3, in data set [4], the binding result was “binds”.
